B1: COP1‐His (natural protein)
chain: MEEISTDPVVPAVKPDPRTSSVGEGANRHENDDGGSGGSEIGAPDLDKDLLCPICMQIIKDAFLTACGHSFCYMCIITHLRNKSDCPCCSQHLTNNQLYPNFLLDKLLKKTSARHVSKTASPLDQFREALQRGCDVSIKEVDNLLTLLAERKRKMEQEEAERNMQILLDFLHCLRKQKVDELNEVQTDLQYIKEDINAVERHRIDLYRARDRYSVKLRMLGDDPSTRNAWPHEKNQIGFNSNSLSIRGGNFVGNYQNKKVEGKAQGSSHGLPKKDALSGSDSQSLNQSTVSMARKKRIHAQFNDLQECYLQKRRQLADQPNSKQENDKSVVRREGYSNGLADFQSVLTTFTRYSRLRVIAEIRHGDIFHSANIVSSIEFDRDDELFATAGVSRCIKVFDFSSVVNEPADMQCPIVEMSTRSKLSCLSWNKHEKNHIASSDYEGIVTVWDVTTRQSLMEYEEHEKRAWSVDFSRTEPSMLVSGSDDCKVKVWCTRQEASVINIDMKANICCVKYNPGSSNYIAVGSADHHIHYYDLRNISQPLHVFSGHKKAVSYVKFLSNNELASASTDSTLRLWDVKDNLPVRTFRGHTNEKNFVGLTVNSEYLACGSETNEVYVYHKEITRPVTSHRFGSPDMDDAEEEAGSYFISAVCWKSDSPTMLTANSQGTIKVLVLAA
notes: COP1 (CONSTITUTIVELY PHOTOMORPHOGENIC 1) E3 ubiquitin ligase, Arabidopsis thaliana, full-length CDS cloned into pET-20b(+); also called COP1‐6His; source: E. coli BL21 (DE3), purified by Ni‐NTA Agarose beads; not shown: His6, C-terminal, kept
B2: GST‐HY5 (natural protein, Arabidopsis thaliana, UniProt O24646 1-168, looked up)
chain: MQEQATSSLAASSLPSSSERSSSSAPHLEIKEGIESDEEIRRVPEFGGEAVGKETSGRESGSATGQERTQATVGESQRKRGRTPAEKENKRLKRLLRNRVSAQQARERKKAYLSELENRVKDLENKNSELEERLSTLQNENQMLRHILKNTTGNKRGGGGGSNADASL
notes: Positive control of the pull-down; also called ELONGATED HYPOCOTYL5; source: E. coli BL21 (DE3), purified by Glutathione sepharose 4B beads

How the values were obtained:
GST‐CAM7 = biological target: T1, GST‐CAM7 (Arabidopsis thaliana, UniProt P59220 1-149); assay: pull-down; 2 μg COP1‐His bound to Ni‐NTA beads; GST fusions or GST added in an equimolar ratio, overnight at 4°C; 50 mM Tris‐Cl pH 7.5, 100 mM NaCl, 0.2% glycerol, 0.1% triton, 1 mM EDTA, 0.1% NP‐40; anti‐GST immunoblot; details: both partners purified
T1 construct: Vector pGEX-4T2; also called Calmodulin7; CAM7/ZBF3; source: E. coli BL21 (DE3), purified by Glutathione sepharose 4B beads

COP1‐His = biological target: B1; assay: as above; details: both partners purified

Row | binding result (GST‐CAM7) | binding result (COP1‐His) | Binder
1 | binds |  | B1
2 |  | binds | B2

Source: paper PMC6593147, “COP1 regulates the stability of CAM7 to promote photomorphogenic growth” (Plant Direct, 2019)
